This note sets out measurements from patent publication US20250326865A1, “C-MET PROTEIN-BINDING PEPTIDE COMPLEX” (PeptiDream Inc., priority 2021, published 2025).

The labels stand for the following.
B1: Peptide complex No. 42 in Table 4 (peptide SEQ ID NO: 30, GFs_c-Met-00014304p; linker SEQ ID NO: 36) (peptide)
peptide: {CH2CO}-[NMeF]TAVS[NMeF]DSDRPRWS[NMeC]
chain: GK[CO(CH2CH2O)9CH2CH2CO]KG
modifications: thioether I:N-I:15 (inferred); also: homodimer of two cyclic peptides joined by linker G-K-cPEG9c-K-G, peptide C-terminus on linker
B2: Peptide complex No. 41 in Table 4 (peptide SEQ ID NO: 30, GFs_c-Met-00014304p; linker SEQ ID NO: 38) (peptide)
peptide: {CH2CO}-[NMeF]TAVS[NMeF]DSDRPRWS[NMeC]
chain: GK[CO(CH2)2(OCH2CH2)17CO]KG
modifications: thioether I:N-I:15 (inferred); also: homodimer of two cyclic peptides joined by linker G-K-cPEG17c-K-G, peptide C-terminus on linker
B3: Peptide complex No. 46 in Table 4 (peptide SEQ ID NO: 32, GFs_c-Met-00014297p; linker SEQ ID NO: 36) (peptide)
peptide: {CH2CO}-[NMeF]TAVS[NMeF]DPD[Ahp(2)]PRWA[NMeC]
chain: GK[CO(CH2CH2O)9CH2CH2CO]KG
modifications: thioether I:N-I:15 (inferred); also: homodimer of two cyclic peptides joined by linker G-K-cPEG9c-K-G, peptide C-terminus on linker
B4: Peptide complex No. 39 in Table 4 (peptide SEQ ID NO: 29, GFs_c-Met-00014306p; linker SEQ ID NO: 38) (peptide)
peptide: {CH2CO}-[NMeF]TAVSLDSD[Ahp(2)]PRWS[NMeC]
chain: GK[CO(CH2)2(OCH2CH2)17CO]KG
modifications: thioether I:N-I:15 (inferred); also: homodimer of two cyclic peptides joined by linker G-K-cPEG17c-K-G, peptide C-terminus on linker
B5: Peptide complex No. 44 in Table 4 (peptide SEQ ID NO: 31, Gfs_c-Met-00014294p; linker SEQ ID NO: 36) (peptide)
peptide: {CH2CO}-[NMeF]TAVS[NMeF]DSD[Ahp(2)]PRWA[NMeC]
chain: GK[CO(CH2CH2O)9CH2CH2CO]KG
modifications: thioether I:N-I:15 (inferred); also: homodimer of two cyclic peptides joined by linker G-K-cPEG9c-K-G, peptide C-terminus on linker
B6: Peptide complex No. 45 in Table 4 (peptide SEQ ID NO: 32, GFs_c-Met-00014297p; linker SEQ ID NO: 38) (peptide)
peptide: {CH2CO}-[NMeF]TAVS[NMeF]DPD[Ahp(2)]PRWA[NMeC]
chain: GK[CO(CH2)2(OCH2CH2)17CO]KG
modifications: thioether I:N-I:15 (inferred); also: homodimer of two cyclic peptides joined by linker G-K-cPEG17c-K-G, peptide C-terminus on linker
B7: Peptide complex No. 43 in Table 4 (peptide SEQ ID NO: 31, Gfs_c-Met-00014294p; linker SEQ ID NO: 38) (peptide)
peptide: {CH2CO}-[NMeF]TAVS[NMeF]DSD[Ahp(2)]PRWA[NMeC]
chain: GK[CO(CH2)2(OCH2CH2)17CO]KG
modifications: thioether I:N-I:15 (inferred); also: homodimer of two cyclic peptides joined by linker G-K-cPEG17c-K-G, peptide C-terminus on linker
B8: Peptide complex No. 47 in Table 4 (peptide SEQ ID NO: 33, GFs_c-Met-00014300p; linker SEQ ID NO: 38) (peptide)
peptide: {CH2CO}-[NMeF]TAVS[NMeF]DPD[Ahp(2)]PRWS[NMeC]
chain: GK[CO(CH2)2(OCH2CH2)17CO]KG
modifications: thioether I:N-I:15 (inferred); also: homodimer of two cyclic peptides joined by linker G-K-cPEG17c-K-G, peptide C-terminus on linker
B9: Peptide complex No. 40 in Table 4 (peptide SEQ ID NO: 29, GFs_c-Met-00014306p; linker SEQ ID NO: 36) (peptide)
peptide: {CH2CO}-[NMeF]TAVSLDSD[Ahp(2)]PRWS[NMeC]
chain: GK[CO(CH2CH2O)9CH2CH2CO]KG
modifications: thioether I:N-I:15 (inferred); also: homodimer of two cyclic peptides joined by linker G-K-cPEG9c-K-G, peptide C-terminus on linker

Starred links: 1 amine or outer side, 2 acyl side, 3 side chain; linkers in the order of their positions; H or OH if unused. Positions of bridges follow the written chain, without caps; N, C: chain ends. Non-standard residues stand in square brackets, D forms with d. Chains are numbered I, II in the order given. No end group written: not given here. CO(CH2)2(OCH2CH2)17CO = O=C(CCOCCOCCOCCOCCOCCOCCOCCOCCOCCOCCOCCOCCOCCOCCOCCOCCOCCC(=O)[*:2])[*:1]; CO(CH2CH2O)9CH2CH2CO = O=C(CCOCCOCCOCCOCCOCCOCCOCCOCCOCCC(=O)[*:2])[*:1]; NMeF = CN[C@@H](Cc1ccccc1)C(=O)O; Ahp(2) = CCCCC[C@H](N)C(=O)O; NMeC = CN[C@@H](CS)C(=O)O

Chain of human c-Met protein (P08581 25-1390): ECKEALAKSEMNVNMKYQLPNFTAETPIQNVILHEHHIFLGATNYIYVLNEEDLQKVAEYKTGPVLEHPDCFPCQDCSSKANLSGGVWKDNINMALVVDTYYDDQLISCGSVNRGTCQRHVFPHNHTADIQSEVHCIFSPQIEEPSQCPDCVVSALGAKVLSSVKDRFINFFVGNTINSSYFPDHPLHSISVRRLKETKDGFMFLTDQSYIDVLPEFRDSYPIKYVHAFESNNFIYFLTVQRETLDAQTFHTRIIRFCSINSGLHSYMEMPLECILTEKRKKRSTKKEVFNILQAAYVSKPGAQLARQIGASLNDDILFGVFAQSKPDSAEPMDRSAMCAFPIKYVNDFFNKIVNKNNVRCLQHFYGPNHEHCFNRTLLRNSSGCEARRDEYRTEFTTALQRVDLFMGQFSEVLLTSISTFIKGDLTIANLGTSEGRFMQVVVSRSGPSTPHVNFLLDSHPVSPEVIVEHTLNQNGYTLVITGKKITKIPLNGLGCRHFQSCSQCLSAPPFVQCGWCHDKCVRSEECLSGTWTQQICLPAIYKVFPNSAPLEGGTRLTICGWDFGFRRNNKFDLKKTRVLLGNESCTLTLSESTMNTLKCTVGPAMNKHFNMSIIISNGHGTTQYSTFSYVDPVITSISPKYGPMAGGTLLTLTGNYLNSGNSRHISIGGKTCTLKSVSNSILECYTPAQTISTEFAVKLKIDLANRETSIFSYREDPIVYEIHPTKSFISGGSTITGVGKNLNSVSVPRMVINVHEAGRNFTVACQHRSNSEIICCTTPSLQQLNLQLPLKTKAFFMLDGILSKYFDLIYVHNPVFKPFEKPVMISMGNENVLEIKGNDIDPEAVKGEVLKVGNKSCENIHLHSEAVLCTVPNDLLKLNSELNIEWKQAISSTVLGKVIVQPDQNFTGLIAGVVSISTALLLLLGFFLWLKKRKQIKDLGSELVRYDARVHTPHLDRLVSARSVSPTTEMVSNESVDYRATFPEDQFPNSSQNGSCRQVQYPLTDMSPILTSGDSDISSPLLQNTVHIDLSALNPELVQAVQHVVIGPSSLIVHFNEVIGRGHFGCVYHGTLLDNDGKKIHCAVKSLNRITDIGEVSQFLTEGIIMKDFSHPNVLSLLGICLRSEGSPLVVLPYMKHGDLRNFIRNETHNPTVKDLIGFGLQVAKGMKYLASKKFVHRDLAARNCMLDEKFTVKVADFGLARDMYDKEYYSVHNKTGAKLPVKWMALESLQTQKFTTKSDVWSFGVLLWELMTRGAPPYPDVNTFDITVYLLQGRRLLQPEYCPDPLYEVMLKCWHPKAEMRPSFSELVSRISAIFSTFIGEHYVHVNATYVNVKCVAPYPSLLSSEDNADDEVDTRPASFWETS

This assay addresses human c-Met protein (human, UniProt P08581 25-1390). As to the kind of experiment: cell-based or functional assay.
In the case of B1, the “C-Met Agonist Activity (C50; nM): phospho-c-Met AlphaLISA, A431 cells” value (shortened to “C-Met Agonist Activity (C50; nM)”) worked out at 0.33 nM.
Consider B2, for which the “C-Met Agonist Activity (C50; nM)” value came to 0.32 nM.
With B3 the figure was 0.67 nM.
Turning to B4, the “C-Met Agonist Activity (C50; nM)” value was 1.44 nM.
Turning to B5, the “C-Met Agonist Activity (C50; nM)” value worked out at 0.33 nM.
With B6 the figure was 0.71 nM; with B7, 0.45 nM; with B8, 0.5 nM.
With B9 the figure was 2.13 nM.
